# Paper PMC10643132
# How the values were obtained:
# [1] = target: biotinylated Ub (biotin maleimide on an N-terminal cysteine) (UniProt P0CG48); experiment: METRIS (mechanically transduced immunosorbent assay); as a7, surface of Ub, UbV^RING and UbV^CDH1 both added as competitors (concentrations not given)
# [2] = target: biotin–CycB^N* (AviTag–Cyclin B (1–88)–Cys–6xHis, biotinylated, Alexa488-labeled) (UniProt P14635); experiment: METRIS (mechanically transduced immunosorbent assay); biotinylated APC/C (with or without CDH1) on streptavidin ferromagnetic beads rolling on streptavidin wells coated with biotinylated CycB^N, Ub–CycB^N or Ub; rotating field 1 Hz; rolling parameter (RP); relative measure; no UbV added
# Chain of biotin–CycB^N* (AviTag–Cyclin B (1–88)–Cys–6xHis, biotinylated, Alexa488-labeled) (P14635 other isoform, or with tags, fused parts or gaps): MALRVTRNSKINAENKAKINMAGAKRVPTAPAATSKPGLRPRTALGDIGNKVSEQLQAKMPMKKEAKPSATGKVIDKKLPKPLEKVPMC
# [3] = target: biotinylated Ub–CycB^N (AviTag–Ub–Cyclin B (1–88)–Cys–6xHis) (UniProt P0CG48); experiment: as above
# [4] = target: biotinylated Ub (biotin maleimide on an N-terminal cysteine) (UniProt P0CG48); experiment: as above
# [5] = target: biotinylated Ub–CycB^N (AviTag–Ub–Cyclin B (1–88)–Cys–6xHis) (UniProt P0CG48); experiment: METRIS (mechanically transduced immunosorbent assay); as a7, surface of Ub–CycB^N, UbV^CDH1 added as competitor (concentration not stated)
substance,measurement,setting,value
"biotinylated APC/C^CDH1 (biotinylated APC/C with HaloTag, AviTag and Twin-Strep(II)-tag on APC4, incubated with CDH1 on the beads) (from UniProt Q9UJX6 1-822; P30260 1-824; Q9UJX5 1-808; Q9UJX3 1-565; Q9UJX2 1-595; Q9UM13 4-185; Q9NYG5 1-84; Q9UM11 1-496) (complex)",rolling parameter (RP) with UbV^RING and UbV^CDH1 added,[1],0.13
same,rolling parameter (RP),[2],0.15
same,rolling parameter (RP),[3],0.21
same,rolling parameter (RP),[4],0.17
same,rolling parameter (RP) with UbV^CDH1 added,[5],0.19
